# Experimental data taken from US20060110769A1 (Bayer, published 2006).
# B1: human prolyl 4-hydroxylase PH-2 (enzyme)
# chain: MAAAAVTGQRPETAAAEEASRPQWAPPDHCQAQAAAGLGDGEDAPVRPLCKPRGICSRAYFLVLMVFVHLYLGNVLALLLFVHYSNGDESSDPGPQHRAQGPGPEPTLGPLTRLEGIKVGHERKVQLVTDRDHFIRTLSLKPLLFEIPGFLTDEECRLIIHLAQMKGLQRSQILPTEEYEEAMSTMQVSQLDLFRLLDQNRDGHLQLREVLAQTRLGNGWWMTPESIQEMYAAIKADPDADGVLSLQEFSNMDLRDFHKYMRSHKAESSELVRNSHHTWLYQGEGAHHIMRAIRQRVLRLTRLSPEIVELSEPLQVVRYGEGGHYHAHVDSGPVYPETICSHTKLVANESVPFETSCRYMTVLFYLNNVTGGGETVFPVADNRTYDEMSLIQDDVDLRDTRRHCDKGNLRVKPQQGTAVFWYNYLPDGQGWVGDVDDYSLHGGCLVTRGTKWIANNWINVDPSRARQALFQQEMARLAREGGTDSQPEWALDRAYRDARVEL
# Molecular target: mouse hypoxia inducible factor-2 alpha (mouse, UniProt P97481 1-874)
# Sequence (P97481 whole entry): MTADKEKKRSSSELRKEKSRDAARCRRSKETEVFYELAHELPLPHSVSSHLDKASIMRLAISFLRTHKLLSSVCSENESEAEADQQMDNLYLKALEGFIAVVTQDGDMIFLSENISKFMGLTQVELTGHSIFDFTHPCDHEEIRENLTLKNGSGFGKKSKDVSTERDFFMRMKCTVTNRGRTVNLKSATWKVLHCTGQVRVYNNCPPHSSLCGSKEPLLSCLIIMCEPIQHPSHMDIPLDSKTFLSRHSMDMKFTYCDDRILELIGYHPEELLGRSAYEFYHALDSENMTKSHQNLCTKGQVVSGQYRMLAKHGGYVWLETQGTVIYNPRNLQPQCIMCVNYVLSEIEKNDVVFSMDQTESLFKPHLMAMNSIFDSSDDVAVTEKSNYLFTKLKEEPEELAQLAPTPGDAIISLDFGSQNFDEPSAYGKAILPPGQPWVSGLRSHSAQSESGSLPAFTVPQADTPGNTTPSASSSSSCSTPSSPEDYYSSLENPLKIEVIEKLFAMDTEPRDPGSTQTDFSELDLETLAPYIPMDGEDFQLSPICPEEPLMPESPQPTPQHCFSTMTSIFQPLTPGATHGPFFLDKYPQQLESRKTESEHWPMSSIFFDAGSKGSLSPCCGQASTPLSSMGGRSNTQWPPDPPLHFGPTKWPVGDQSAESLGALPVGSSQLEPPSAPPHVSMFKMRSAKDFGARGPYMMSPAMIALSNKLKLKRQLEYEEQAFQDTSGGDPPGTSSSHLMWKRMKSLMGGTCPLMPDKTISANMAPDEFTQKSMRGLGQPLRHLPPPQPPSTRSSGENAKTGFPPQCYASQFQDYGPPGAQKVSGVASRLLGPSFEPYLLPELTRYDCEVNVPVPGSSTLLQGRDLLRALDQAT
# Experiment: cell-based or functional assay
binder,measurement,value
B1,activity of HIF-2 alpha on the hypoxia responsive reporter gene construct (equal amounts of each plasmid); activity of PH-2 relative to EGLN3,2 fold less active than EGLN3
